The text below walks through data of the supplement of paper PMC10899765.

Common to all, as to conditions: 20 nM; 72 h
The subject of series [1] is MCF10A. As to the kind of experiment: percent viability (nuclei count relative to siNT); higher = more viable cells. The method, then:
(§1)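 After 72 h, cells were fixed and stained with Hoechst and anti-fibrillarin, and nucleoli per nucleus were counted with CellProfiler. Values are plate-adjusted percent effect for the one-nucleolus and 5+ nucleoli phenotypes, normalised to siNT (0%) and to the positive controls siNOL11 or siKIF11 (100%), as the mean of biological triplicates. Percent viability is the nuclei count relative to siNT.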

Series [2] has as its system MCF10A. As to the kind of experiment: 5+ nucleoli phenotype percent effect (relative to siNT 0% and siKIF11 100%); higher = more cells with five or more nucleoli. As for the experimental part: as §1
For series [3], the system named is MCF10A. The series can be described thus: one-nucleolus phenotype percent effect (relative to siNT 0% and siNOL11 100%); higher = more cells with one nucleolus (ribosome biogenesis inhibition). As for the experimental part:
as §1

For CUCAUCUGCAAAGAAGUAAGUG [hsa-miR-452-3p], the percent viability in series [1] came to 21.6%. For the same sequence, in series [2], the “5+ nucleoli phenotype percent effect” value is -40.5%. Moreover, in series [3], the “one-nucleolus phenotype percent effect” value was 48.1%.

In the case of “UUGAGGGGAGAAUGAGGUGGAGA [hsa-miR-6734-5p]”, in series [1], the percent viability was 35%. For the same sequence, the “5+ nucleoli phenotype percent effect” value in series [2] came to 2.95%. Also, the “one-nucleolus phenotype percent effect” value in series [3] was -5.42%.

As for “AAAUUCAUGUUCAAUCUAAACC [hsa-miR-4760-3p]”, the percent viability in series [1] is 68.6%. In series [2], the “5+ nucleoli phenotype percent effect” value is 10%. The “one-nucleolus phenotype percent effect” value in series [3] is -13.1%.

Take “ACUUUAACAUGGAAGUGCUUUC [hsa-miR-302b-5p]”: the percent viability in series [1] was 101%. The “5+ nucleoli phenotype percent effect” value in series [2] was determined as 35.7%. For the same sequence, the “one-nucleolus phenotype percent effect” value in series [3] was -20.3%.

Take AGGGGUGCUAUCUGUGAUUGA [hsa-miR-342-5p]: the percent viability in series [1] turned out to be 10.5%. Also, the “5+ nucleoli phenotype percent effect” value in series [2] was -43.4%. The “one-nucleolus phenotype percent effect” value in series [3] worked out at 15.1%.

Take UGAGCUGCUGUACCAAAAU [hsa-miR-558]: the percent viability in series [1] stood at 65.1%. Moreover, in series [2], the “5+ nucleoli phenotype percent effect” value turned out to be 0.086%. In series [3], the “one-nucleolus phenotype percent effect” value worked out at 6.73%.

As to CCGCUCUUCCCCUGACCCCAG [hsa-miR-6812-3p], in series [1], the percent viability was 163%. For the same sequence, the “5+ nucleoli phenotype percent effect” value in series [2] is 54.6%. For the same sequence, the “one-nucleolus phenotype percent effect” value in series [3] is -35.5%.

UCACUCCUCUCCUCCCGUCUU [hsa-miR-483-3p]: the percent viability in series [1] came out at 45.3%. Besides, the “5+ nucleoli phenotype percent effect” value in series [2] is -26.9%. Also, the “one-nucleolus phenotype percent effect” value in series [3] was determined as 16.3%.

Regarding ACACCCUCUUUCCCUACCGCC [hsa-miR-6865-3p], in series [1], the percent viability turned out to be 86.3%. In series [2], the “5+ nucleoli phenotype percent effect” value came to 40.5%. Moreover, the “one-nucleolus phenotype percent effect” value in series [3] was -26%.

“GGGACCAUCCUGCCUGCUGUGG [hsa-miR-3619-3p]”: in series [1], the percent viability came out at 44.4%. In series [2], the “5+ nucleoli phenotype percent effect” value was found to be 20.9%. In addition, in series [3], the “one-nucleolus phenotype percent effect” value is -10.4%.

On to UCCUGCCUUCCUCUGCACCAG [hsa-miR-6747-3p], for which the percent viability in series [1] came out at 27%. The “5+ nucleoli phenotype percent effect” value in series [2] is -28.9%. The “one-nucleolus phenotype percent effect” value in series [3] was 16%.

Regarding UGGAUGUGGAAGGAGUUAUCU [hsa-miR-4764-5p], the percent viability in series [1] was found to be 7.49%. Moreover, the “5+ nucleoli phenotype percent effect” value in series [2] is -8.02%. Besides, the “one-nucleolus phenotype percent effect” value in series [3] was -0.862%.

Consider UCGCCUCCUCCUCUCCC [hsa-miR-1281], for which, in series [1], the percent viability came to 60.9%. For the same sequence, in series [2], the “5+ nucleoli phenotype percent effect” value is -24.6%. Further, in series [3], the “one-nucleolus phenotype percent effect” value was determined as 10.9%.

Turning to UGUUUGUUGUAAGGAUCGUUGU [hsa-miR-8068], in series [1], the percent viability was found to be 34.1%. The “5+ nucleoli phenotype percent effect” value in series [2] is -15.7%. In addition, in series [3], the “one-nucleolus phenotype percent effect” value came to 7.78%.

Turning to AUGUAUAAAUGUAUACACAC [hsa-miR-568], the percent viability in series [1] was determined as 178%. In series [2], the “5+ nucleoli phenotype percent effect” value turned out to be 26.1%. The “one-nucleolus phenotype percent effect” value in series [3] was -26.3%.

Regarding AUGUAUGUGUGCAUGUGCAUG [hsa-miR-297], the percent viability in series [1] came out at 116%. In addition, in series [2], the “5+ nucleoli phenotype percent effect” value turned out to be 34.4%. Further, the “one-nucleolus phenotype percent effect” value in series [3] is -26.3%.

On to “UAUCCAGCUUGUUACUAUAUGC [hsa-miR-5586-5p]”, for which, in series [1], the percent viability is 47.2%. For the same sequence, the “5+ nucleoli phenotype percent effect” value in series [2] came to 7.77%. Further, in series [3], the “one-nucleolus phenotype percent effect” value is -0.119%.

For UGGGGAUUUGGAGAAGUGGUGA [hsa-miR-4450], in series [1], the percent viability stood at 16.5%. For the same sequence, the “5+ nucleoli phenotype percent effect” value in series [2] was 3.63%. Further, the “one-nucleolus phenotype percent effect” value in series [3] was 46.8%.

On to AGGAGAAGUCGGGAAGGU [hsa-miR-5703], for which the percent viability in series [1] turned out to be 30.6%. Besides, the “5+ nucleoli phenotype percent effect” value in series [2] turned out to be 33.6%. Also, the “one-nucleolus phenotype percent effect” value in series [3] is -5.15%.

In the case of “UGGGAACGGGUUCCGGCAGACGCUG [hsa-miR-1292-5p]”, the percent viability in series [1] was 60.3%. In addition, the “5+ nucleoli phenotype percent effect” value in series [2] is -16.7%. Further, the “one-nucleolus phenotype percent effect” value in series [3] came out at 13.5%.

For “UUGAAGGGACAAGUCAGAUAUGCC [hsa-miR-6864-5p]”, the percent viability in series [1] is 25.6%. Further, the “5+ nucleoli phenotype percent effect” value in series [2] was -1.47%. Moreover, the “one-nucleolus phenotype percent effect” value in series [3] came to 17.8%.

With UGAGGUAGUAGUUUGUACAGUU [hsa-let-7g-5p], the percent viability in series [1] is 21.6%. For the same sequence, the “5+ nucleoli phenotype percent effect” value in series [2] worked out at 29%. Besides, the “one-nucleolus phenotype percent effect” value in series [3] is -16.7%.

As for “CUUCUGCCUGCAUUCUACUCCCAG [hsa-miR-6738-3p]”, the percent viability in series [1] is 51.1%. Also, the “5+ nucleoli phenotype percent effect” value in series [2] is -13.9%. In addition, the “one-nucleolus phenotype percent effect” value in series [3] was 12.5%.

Take ACUGGACUUGGAGUCAGGA [hsa-miR-378e]: the percent viability in series [1] was found to be 26.4%. Moreover, the “5+ nucleoli phenotype percent effect” value in series [2] was -3.63%. In series [3], the “one-nucleolus phenotype percent effect” value is 11.5%.
